Data on 18 molecules can be found in patent US20230348578A1, “CONFORMATION-SPECIFIC ANTIBODIES THAT BIND TAU PROTEIN AND USES THEREOF” (Beth Israel Deaconess Medical Center, Inc., priority 2020, published 2023).

For this assay, the target named is P-tau peptide (wild-type P-tau peptide and its pure cis or cis-locked, and pure trans counterparts). As to the kind of experiment: Biacore (SPR) with P-tau peptide. A general note: SPR reads the build-up and loss of mass on a sensor chip optically.

B1: Cis-mAb HT18 (humanized) (antibody, V domains shown)
VH: QVQLVQSGAEVKKPGSSVKVSCKASGYTFTSYWIHWVRQAPGQGLEWMGVIDPSDSYTRYNQKFKGRVTITRDTSMSTAYTELSSLRSEDTAVYYCTTWEVDYWGQGTLVTVSS
VL: DIQMTQSPSTLSASVGDRVTITCRSSQSLVHSDGNTYLHWYQQKPGKAPKLLIYKVSNRFSGVPSRFSGSGSGTEFTLTISSLQPDDFATYYCSQSTHVPWTFGQGTKLEIK
With B1, the equilibrium dissociation constant (Kd) – broadly, the concentration at which binding is half-saturated – was 1.91 nM and the Relative KD was 1.52 fold of HT13.

B2: Cis-mAb HT13 (mouse-human chimera, control) (antibody, V domains shown)
VH: QVQLQQPGAELVKPGASVKMSCKASGYTFTSYWIHWVKQRPGQGLEWIGVIDPSDSYTRYNQKFKGKATLTVDTSSSTAYMQLSSLTSEDSAVYYCTTWEVDYWGQGTTLTVSS
VL: DVVMTQTPLSLPVSLGDQASISCRSSQSLVHSDGNTYLHWYLQKPGQSPKLLIYKVSNRFSGVPDRFSGSGSGTDFTLKISRLEAEDLGVYFCSQSTHVPWTFGGGTKLEIK
B2: the Kd was 1.26 nM and the Relative KD was 1 fold of HT13.

B3: Cis-mAb HT8 (humanized) (antibody, V domains shown)
VH: QVQLVQSGAEVKKPGASVKVSCKASGYTFTSYWIHWVRQRPGQGLEWIGVIDPSDSYTRYNQKFKGRVTITRDTSASTAYMELSSLRSEDTAVYYCTTWEVDYWGQGTLVTVSS
VL: DVVMTQSPLSLPVTLGQPASISCRSSQSLVHSDGNTYLHWYLQKPGQSPQLLIYKVSNRDSGVPDRFSGSGSGTDFTLKISRVEAEDVGVYFCSQSTHVPWTFGGGTKVEIK
As to B3, the Kd amounted to 7.68 nM and the Relative KD was 6.11 fold of HT13.

B4: Cis-mAb HT10 (humanized) (antibody, V domains shown)
VH: QVQLVQSGAEVKKPGASVKMSCKASGYTFTSYWIHWVKQRPGQGLEWIGVIDPSDSYTRYNQKFKGRATLTVDTSASTAYMELSSLRSEDTAVYYCTTWEVDYWGQGTLVTVSS
VL: DVVMTQSPLSLPVTLGQPASISCRSSQSLVHSDGNTYLHWYLQKPGQSPQLLIYKVSNRFSGVPDRFSGSGSGTDFTLKISRVEAEDVGVYYCSQSTHVPWTFGGGTKVEIK
As for B4, the Kd was determined as 1.77 nM and the Relative KD was 1.4 fold of HT13.

B5: Cis-mAb HT7 (humanized) (antibody, V domains shown)
VH: QVQLVQSGAEVKKPGASVKVSCKASGYTFTSYWIHWVRQRPGQGLEWIGVIDPSDSYTRYNQKFKGRVTLTVDTSASTAYMELSSLRSEDTAVYYCTTWEVDYWGQGTLVTVSS
VL: DVVMTQSPLSLPVTLGQPASISCRSSQSLVHSDGNTYLHWYLQKPGQSPQLLIYKVSNRDSGVPDRFSGSGSGTDFTLKISRVEAEDVGVYFCSQSTHVPWTFGGGTKVEIK
Turning to B5, the Kd was determined as 10.8 nM and the Relative KD was 8.57 fold of HT13.

B6: Cis-mAb HT11 (humanized) (antibody, V domains shown)
VH: QVQLVQSGAEVKKPGASVKVSCKASGYTFTSYWIHWVRQRPGQGLEWIGVIDPSDSYTRYNQKFKGRVTLTVDTSASTAYMELSSLRSEDTAVYYCTTWEVDYWGQGTLVTVSS
VL: DVVMTQSPLSLPVTLGQPASISCRSSQSLVHSDGNTYLHWYLQKPGQSPQLLIYKVSNRFSGVPDRFSGSGSGTDFTLKISRVEAEDVGVYYCSQSTHVPWTFGGGTKVEIK
On to B6, for which the Kd came to 3.99 nM and the Relative KD was 3.17 fold of HT13.

B7: Cis-mAb HT17 (humanized) (antibody, V domains shown)
VH: QVQLVQSGAEVKKPGASVKVSCKASGYTFTSYWIHWVRQRPGQGLEWIGVIDPSDSYTRYNQKFKGRVTITRDTSASTAYMELSSLRSEDTAVYYCTTWEVDYWGQGTLVTVSS
VL: DVVMTQSPLSLPVTLGQPASISCRSSQSLVHSDGNTYLNWYLQKPGQSPQLLIYKVSNRFSGVPDRFSGSGSGTDFTLKISRVEAEDVGVYFCSQSTHVPWTFGGGTKVEIK
Regarding B7, the Kd was 4940 nM and the Relative KD is 3920 fold of HT13.

B8: Cis-mAb HT2 (humanized) (antibody, V domains shown)
VH: QVQLVQSGAEVKKPGASVKMSCKASGYTFTSYWIHWVKQRPGQGLEWIGVIDPSDSYTRYNQKFKGRATLTVDTSASTAYMELSSLRSEDTAVYYCTTWEVDYWGQGTLVTVSS
VL: DVVMTQSPLSLPVTLGQPASISCRSSQSLVHSDGNTYLHWYLQKPGQSPQLLIYKVSNRFSGVPDRFSGSGSGTDFTLKISRVEAEDVGVYFCSQSTHVPWTFGGGTKVEIK
Take B8: the Kd turned out to be 1.62 nM and the Relative KD is 1.29 fold of HT13.

B9: Cis-mAb HT1 (humanized) (antibody, V domains shown)
VH: QVQLVQSGAELKKPGASVKMSCKASGYTFTSYWIHWVKQRPGQGLEWIGVIDPSDSYTRYNQKFKGRATLTVDTSASTAYMQLSSLTSEDSAVYYCTTWEVDYWGQGTTVTVSS
VL: DVVMTQSPLSLPVTLGQPASISCRSSQSLVHSDGNTYLHWYLQKPGQSPQLLIYKVSNRFSGVPDRFSGSGSGTDFTLKISRVEAEDVGVYFCSQSTHVPWTFGGGTKVEIK
On to B9, for which the Kd was determined as 1.83 nM and the Relative KD is 1.45 fold of HT13.

B10: Cis-mAb HT3 (humanized) (antibody, V domains shown)
VH: QVQLVQSGAEVKKPGASVKVSCKASGYTFTSYWIHWVRQRPGQGLEWIGVIDPSDSYTRYNQKFKGRVTLTVDTSASTAYMELSSLRSEDTAVYYCTTWEVDYWGQGTLVTVSS
VL: DVVMTQSPLSLPVTLGQPASISCRSSQSLVHSDGNTYLHWYLQKPGQSPQLLIYKVSNRFSGVPDRFSGSGSGTDFTLKISRVEAEDVGVYFCSQSTHVPWTFGGGTKVEIK
As for B10, the Kd worked out at 3.51 nM and the Relative KD was 2.79 fold of HT13.

B11: Cis-mAb HT15 (humanized) (antibody, V domains shown)
VH: QVQLVQSGAEVKKPGASVKMSCKASGYTFTSYWIHWVKQRPGQGLEWIGVIDPSDSYTRYNQKFKGRATLTVDTSASTAYMELSSLRSEDTAVYYCTTWEVDYWGQGTLVTVSS
VL: DVVMTQSPLSLPVTLGQPASISCRSSQSLVHSDGNTYLNWYLQKPGQSPQLLIYKVSNRFSGVPDRFSGSGSGTDFTLKISRVEAEDVGVYFCSQSTHVPWTFGGGTKVEIK
With B11, the Kd was 33.4 nM and the Relative KD is 26.5 fold of HT13.

B12: Cis-mAb HT12 (humanized) (antibody, V domains shown)
VH: QVQLVQSGAEVKKPGASVKVSCKASGYTFTSYWIHWVRQRPGQGLEWIGVIDPSDSYTRYNQKFKGRVTITRDTSASTAYMELSSLRSEDTAVYYCTTWEVDYWGQGTLVTVSS
VL: DVVMTQSPLSLPVTLGQPASISCRSSQSLVHSDGNTYLHWYLQKPGQSPQLLIYKVSNRFSGVPDRFSGSGSGTDFTLKISRVEAEDVGVYYCSQSTHVPWTFGGGTKVEIK
Consider B12, for which the Kd turned out to be 3.55 nM and the Relative KD is 2.82 fold of HT13.

B13: Cis-mAb HT9 (humanized) (antibody, V domains shown)
VH: QVQLVQSGAELKKPGASVKMSCKASGYTFTSYWIHWVKQRPGQGLEWIGVIDPSDSYTRYNQKFKGRATLTVDTSASTAYMQLSSLTSEDSAVYYCTTWEVDYWGQGTTVTVSS
VL: DVVMTQSPLSLPVTLGQPASISCRSSQSLVHSDGNTYLHWYLQKPGQSPQLLIYKVSNRFSGVPDRFSGSGSGTDFTLKISRVEAEDVGVYYCSQSTHVPWTFGGGTKVEIK
In the case of B13, the dissociation constant Kd is 1.89 nM and the Relative KD is 1.5 fold of HT13.

B14: Cis-mAb HT4 (humanized) (antibody, V domains shown)
VH: QVQLVQSGAEVKKPGASVKVSCKASGYTFTSYWIHWVRQRPGQGLEWIGVIDPSDSYTRYNQKFKGRVTITRDTSASTAYMELSSLRSEDTAVYYCTTWEVDYWGQGTLVTVSS
VL: DVVMTQSPLSLPVTLGQPASISCRSSQSLVHSDGNTYLHWYLQKPGQSPQLLIYKVSNRFSGVPDRFSGSGSGTDFTLKISRVEAEDVGVYFCSQSTHVPWTFGGGTKVEIK
For the molecule B14, the Kd is 2.42 nM and the Relative KD is 1.92 fold of HT13.

B15: Cis-mAb HT16 (humanized) (antibody, V domains shown)
VH: QVQLVQSGAEVKKPGASVKVSCKASGYTFTSYWIHWVRQRPGQGLEWIGVIDPSDSYTRYNQKFKGRVTLTVDTSASTAYMELSSLRSEDTAVYYCTTWEVDYWGQGTLVTVSS
VL: DVVMTQSPLSLPVTLGQPASISCRSSQSLVHSDGNTYLNWYLQKPGQSPQLLIYKVSNRFSGVPDRFSGSGSGTDFTLKISRVEAEDVGVYFCSQSTHVPWTFGGGTKVEIK
As to B15, the Kd came out at 3.26 nM and the Relative KD is 2.59 fold of HT13.

B16: Cis-mAb HT5 (humanized) (antibody, V domains shown)
VH: QVQLVQSGAELKKPGASVKMSCKASGYTFTSYWIHWVKQRPGQGLEWIGVIDPSDSYTRYNQKFKGRATLTVDTSASTAYMQLSSLTSEDSAVYYCTTWEVDYWGQGTTVTVSS
VL: DVVMTQSPLSLPVTLGQPASISCRSSQSLVHSDGNTYLHWYLQKPGQSPQLLIYKVSNRDSGVPDRFSGSGSGTDFTLKISRVEAEDVGVYFCSQSTHVPWTFGGGTKVEIK
For the molecule B16, the Kd is 6.91 nM and the Relative KD was 5.48 fold of HT13.

B17: Cis-mAb HT6 (humanized) (antibody, V domains shown)
VH: QVQLVQSGAEVKKPGASVKMSCKASGYTFTSYWIHWVKQRPGQGLEWIGVIDPSDSYTRYNQKFKGRATLTVDTSASTAYMELSSLRSEDTAVYYCTTWEVDYWGQGTLVTVSS
VL: DVVMTQSPLSLPVTLGQPASISCRSSQSLVHSDGNTYLHWYLQKPGQSPQLLIYKVSNRDSGVPDRFSGSGSGTDFTLKISRVEAEDVGVYFCSQSTHVPWTFGGGTKVEIK
In the case of B17, the Kd is 6.48 nM and the Relative KD is 5.14 fold of HT13.

B18: Cis-mAb HT14 (humanized) (antibody, V domains shown)
VH: QVQLVQSGAELKKPGASVKMSCKASGYTFTSYWIHWVKQRPGQGLEWIGVIDPSDSYTRYNQKFKGRATLTVDTSASTAYMQLSSLTSEDSAVYYCTTWEVDYWGQGTTVTVSS
VL: DVVMTQSPLSLPVTLGQPASISCRSSQSLVHSDGNTYLNWYLQKPGQSPQLLIYKVSNRFSGVPDRFSGSGSGTDFTLKISRVEAEDVGVYFCSQSTHVPWTFGGGTKVEIK
Turning to B18, the Kd is 30.2 nM and the Relative KD is 24 fold of HT13.
